“Also recorded” adds a separate entry of the source.

The results in this text go back to patent US9322000B2, “Methanol dehydrogenase enzymes from Bacillus” (Sinvent AS, priority 2012, dated 2016).

Holding throughout (format): biochemical
A short description of data set [1]: Heat stability: pre-incubation of purified MDHs at 45° C. or 60° C. prior to the enzyme assay. The conditions noted are these: preincubation at 60° C.; compared to the remaining MDHs. The procedure:
FIG. 5. (A) Temperature stability of MGA3 Mdh, Mdh2 and Mdh3 was tested in vitro. Enzymes were incubated at 45° C. or at 60° C. prior to the enzyme assay. (B) Temperature stability of PB1 Mdh, Mdh1 and Mdh2 was tested in vitro. Enzymes were incubated at 45° C. or at 60° C. prior to the enzyme assay.
The heat stability of the six MDHs was tested by pre-incubation of the proteins at 45° C. and 60° C. and samples were taken at different time points for enzyme assays. As expected, all enzymes retained essentially all catalytic activity upon preincubations at 45° C. (FIG. 5). […] A selection of the experiments was repeated in the presence of equal amounts of purified Act, and this had no effect on temperature stability for any of the MDHs (data not shown).

A short description of data set [2]: In vitro Mdh activity in crude cell extracts of recombinant E. coli. The conditions noted are these: for In vitro activity: expressed in E. coli, crude cell extract; for ranking of Mdh activity on expression in E. coli: in vitro and in vivo. From the text: The genes coding for Mdh and the Mdh activator protein Act were amplified from pET21a-plasmids harboring genes from B. methanolicus strains MGA3 (mdh-MGA3, mdh2-MGA3, mdh3-MGA3 and act-MGA3) and PB1 (mdh-PB1, mdh1-PB1 and mdh2-PB1). The genes were then cloned either into the pSEVA424 plasmid (mdh genes) or in the pSEVA131 plasmid (act gene). For cloning of mdh-MGA3, mdh-PB1, mdh1-PB1 and act-MGA3, EcoRI and HindIII restrictions sites were used, while mdh2-MGA3, mdh2-PB1 and mdh3-MGA3 were cloned by using EcoRI and PstI restriction sites. The resulting expression vectors were transformed into electrocompetent wt E. coli K-12 (BW25113) and into E. coli K-12 (BW25113) with a deleted frmA gene.
Expression Experiments For expression experiments, the cells were cultivated in either Luria-Bertani (LB) medium for in vitro assays or in M9 medium for in vivo assays both containing 20 μg/ml streptomycin for pSEVA424. When Act was co-expressed the medium was supplemented with 100 μg/ml ampicillin. Expression was induced when cells reached OD 0.5 (for in vitro tests) or OD 1 (for in vivo tests) by adding 0.1 mM IPTG (final concentration) for 6 hours. Cells were then harvested by centrifugation. For in vitro assays, crude cell extract was prepared by lysing the cells in a French press following ultracentrifugation. Alternatively, cells were resuspended in M9-medium without glucose for in vivo activity measurements. Enzyme Assays
In vitro measurements of Mdh activity: For determination of Mdh activity in crude cell extracts, the Mdh dependent formation of NADH was monitored at 340 nm. The assays were performed either at 37° C. or 45° C. in prewarmed buffer solutions. The Mdh assay contained 10-20 μg enzyme, 50 mM K2HPO4-buffer, pH7.4, 2.5 mM MgCl and 0.5 mM of NAD^+ (final concentrations). After 5 min of preincubation, the reaction was started with 1 M of methanol (final concentration).

Data set [3] can be described thus: Alcohol dehydrogenase assay of purified MDH proteins with ethanol as substrate. Here is the method:
Alcohol dehydrogenase activities were measured spectrophotometrically essentially as described previously (Hektor, Kloosterman et al. (2002) Chem 277(49): 46966-46973) and the reaction mixture contained: 100 mM Glycine-KOH pH 9.5 (unless otherwise stated), 5 mM MgSO4, 0.5 mM NAD^+ and 500 mM alcohol (methanol, ethanol, propanol, 1,3-propanediol, or butanol). NAD^+ was substituted with equal concentrations of NADP^+, FMN^+, and FAD^+, when indicated. The reaction mixture for measurements of formaldehyde reductase activity contained: 50 mM Potassium-phosphate buffer pH=6.7, 0.15 mM NADH, 1 mM DTT and 11.6 mM (0.1-116 mM) formaldehyde. The assay components were mixed in the cuvette and pre-warmed to 45° C., unless otherwise stated. The reactions were started by addition of 5-40 μg of the purified MDH proteins, and the production of NADH was monitored at 340 nm for 4 minutes. One unit of MDH activity was defined as the amount of enzyme needed to produce 1 μmol NADH per minute under the conditions described above. Purified Act (0.1-40 μg) or NudF (20 μg) proteins were added to the reaction mixtures as indicated in the text.
In order to establish reliable assay conditions for comparative biochemical characterizations, the six MDH proteins were analysed for pH and temperature optima. […]

B1: Mdh3-MGA3: NAD-dependent methanol dehydrogenase encoded by chromosomal gene mdh3 of B. methanolicus MGA3, SEQ ID NO. 4 (protein)
chain: MKNTQSAFYMPSVNLFGAGSVNEVGTRLAGLGVKKALLVTDAGLHSLGLSEKIAGIIREAGVEVAIFPKAEPNPTDKNVAEGLEAYNAENCDSIVTLGGGSSHDAGKAIALVAANGGTIHDYEGVDVSKKPMVPLIAINTTAGTGSELTKFTIITDTERKVKMAIVDKHVTPTLSINDPELMVGMPPSLTAATGLDALTHAIEAYVSTGATPITDALAIQAIKIISKYLPRAVANGKDIEAREQMAFAQSLAGMAFNNAGLGYVHAIAHQLGGFYNFPHGVCNAILLPHVCRFNLISKVERYAEIAAFLGENVDGLSTYEAAEKAIKAIERMARDLNIPKGFKELGAKEEDIETLAKNAMNDACALTNPRKPKLEEVIQIIKNAM
modifications: Bacillus methanolicus MGA3
In the case of B1, the “temperature stability in vitro (in words)” value in data set [1] is listed as “Higher Temperature Stabilities; also recorded: improved thermostability”. Besides, the In vitro activity in data set [2] (37° C., +Act) was determined as 327 mU/mg; in data set [2] (37° C., −Act) it was 21 mU/mg; in data set [2] (45° C., +Act), 867 mU/mg; in data set [2] (45° C., −Act) it was 113 mU/mg.

B2: Mdh-MGA3: previously reported plasmid pBM19-encoded NAD-dependent methanol dehydrogenase of B. methanolicus MGA3, SEQ ID NO. 8 (protein)
chain: MTTNFFIPPASVIGRGAVKEVGTRLKQIGAKKALIVTDAFLHSTGLSEEVAKNIREAGVDVAIFPKAQPDPADTQVHEGVDVFKQENCDSLVSIGGGSSHDTAKAIGLVAANGGRINDYQGVNSVEKPVVPVVAITTTAGTGSETTSLAVITDSARKVKMPVIDEKITPTVAIVDPELMVKKPAGLTIATGMDALSHAIEAYVAKGATPVTDAFAIQAMKLINEYLPKAVANGEDIEAREKMAYAQYMAGVAFNNGGLGLVHSISHQVGGVYKLQHGICNSVNMPHVCAFNLIAKTERFAHIAELLGENVAGLSTAAAAERAIVALERINKSFGIPSGYAEMGVKEEDIELLAKNAYEDVCTQSNPRVPTVQDIAQIIKNAM
modifications: Bacillus methanolicus MGA3
In the case of B2, the “stimulation of Mdh activity with NudF” value in data set [3] (B. subtilis NudF added) is listed as “about 8 fold”. In data set [3] (MDH and Act 1:1), the “increase of catalytic activity in the presence of Act” value is “about 8 fold”. The “temperature stability in vitro (in words)” value in data set [1] is given as “only moderate negative effects”. The In vitro activity in data set [2] (37° C., +Act) is given as 464 mU/mg; in data set [2] (37° C., −Act) it was 48 mU/mg; in data set [2] (45° C., +Act) it was 1260 mU/mg; in data set [2] (45° C., −Act), 251 mU/mg.

B3: Mdh2-MGA3: NAD-dependent methanol dehydrogenase encoded by chromosomal gene mdh2 of B. methanolicus MGA3, SEQ ID NO. 2 (protein)
chain: MTNTQSAFFMPSVNLFGAGSVNEVGTRLADLGVKKALLVTDAGLHGLGLSEKISSIIRAAGVEVSIFPKAEPNPTDKNVAEGLEAYNAENCDSIVTLGGGSSHDAGKAIALVAANGGKIHDYEGVDVSKEPMVPLIAINTTAGTGSELTKFTIITDTERKVKMAIVDKHVTPTLSINDPELMVGMPPSLTAATGLDALTHAIEAYVSTGATPITDALAIQAIKIISKYLPRAVANGKDIEAREQMAFAQSLAGMAFNNAGLGYVHAIAHQLGGFYNFPHGVCNAVLLPYVCRFNLISKVERYAEIAAFLGENVDGLSTYDAAEKAIKAIERMAKDLNIPKGFKELGAKEEDIETLAKNAMKDACALTNPRKPKLEEVIQIIKNAM
modifications: Bacillus methanolicus MGA3
Regarding B3, the In vitro activity came to 672 mU/mg in data set [2] (37° C., +Act); 59 mU/mg in data set [2] (37° C., −Act); 1910 mU/mg in data set [2] (45° C., +Act); 310 mU/mg in data set [2] (45° C., −Act). For the same molecule, the “ranking of Mdh activity on expression in E. coli” value in data set [2] is “gave the best results”; in data set [2] (listed as MGA3-Mdh2), “overall highest activities both in vitro and in vivo”.
